Substitutions are numbered along the chain they refer to.

These results are taken from patent publication US20250382355A1 (Merck Sharp & Dohme, published 2025).

T1: MERS spike protein on recombinant CHO K1 cells (MERS-CoV, UniProt K9N5Q8 18-1353)
T1 sequence: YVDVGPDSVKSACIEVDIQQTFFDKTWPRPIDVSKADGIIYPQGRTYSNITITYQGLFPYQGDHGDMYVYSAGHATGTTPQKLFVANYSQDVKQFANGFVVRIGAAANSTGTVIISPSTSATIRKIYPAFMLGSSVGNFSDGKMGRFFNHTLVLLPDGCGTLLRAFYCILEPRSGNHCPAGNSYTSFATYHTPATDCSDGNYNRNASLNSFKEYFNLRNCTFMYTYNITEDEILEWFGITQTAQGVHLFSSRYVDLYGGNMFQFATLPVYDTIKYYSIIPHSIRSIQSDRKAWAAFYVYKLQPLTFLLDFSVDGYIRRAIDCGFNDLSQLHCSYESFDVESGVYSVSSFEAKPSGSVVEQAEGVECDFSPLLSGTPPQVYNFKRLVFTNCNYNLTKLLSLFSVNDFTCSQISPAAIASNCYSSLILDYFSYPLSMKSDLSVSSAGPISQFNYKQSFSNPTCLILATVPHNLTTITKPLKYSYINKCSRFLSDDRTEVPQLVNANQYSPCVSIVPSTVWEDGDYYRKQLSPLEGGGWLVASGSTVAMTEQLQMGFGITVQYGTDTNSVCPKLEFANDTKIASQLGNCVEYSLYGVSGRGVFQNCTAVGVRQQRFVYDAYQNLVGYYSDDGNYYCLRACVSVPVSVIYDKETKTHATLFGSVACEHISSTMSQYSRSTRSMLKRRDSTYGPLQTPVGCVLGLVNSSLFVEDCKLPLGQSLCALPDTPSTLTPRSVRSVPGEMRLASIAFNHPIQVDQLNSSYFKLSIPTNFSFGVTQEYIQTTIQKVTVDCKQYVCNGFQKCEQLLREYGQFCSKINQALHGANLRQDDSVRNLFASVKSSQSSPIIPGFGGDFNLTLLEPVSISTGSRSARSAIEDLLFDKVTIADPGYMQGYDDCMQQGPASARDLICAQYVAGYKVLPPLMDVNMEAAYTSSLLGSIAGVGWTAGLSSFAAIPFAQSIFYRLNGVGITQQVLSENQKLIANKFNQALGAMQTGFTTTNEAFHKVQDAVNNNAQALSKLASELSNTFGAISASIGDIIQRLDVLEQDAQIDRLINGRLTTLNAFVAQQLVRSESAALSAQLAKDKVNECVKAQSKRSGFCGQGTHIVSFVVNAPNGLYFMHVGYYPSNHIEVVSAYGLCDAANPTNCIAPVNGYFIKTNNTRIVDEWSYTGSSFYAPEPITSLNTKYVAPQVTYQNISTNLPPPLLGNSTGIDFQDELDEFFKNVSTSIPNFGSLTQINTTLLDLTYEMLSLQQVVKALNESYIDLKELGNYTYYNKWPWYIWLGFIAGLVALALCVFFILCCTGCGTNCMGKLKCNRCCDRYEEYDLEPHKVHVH

B1: 11F8 VHH-Fc (Fc fusion)
chain: QVQLVESGGGLVQAGGSLRLSCAASGRTVGYYAVGWFRQAPGKERDFVAAISWSGRNTNYADSVTGRFTIFRDNAKNTVDLQMNSLKPEDTAVYYCAADYWNYGSGSEVPNNYDTWGQGTQVTVSS
B2: 11F5 VHH-Fc (Fc fusion)
chain: QVQLVESGGGAVQAGDSLRLSCTASGRTFSTYAVGWFRQAPGKERELLAAITGSGRNPYYPDSLKGRFTISREYAKLPVYLQMNSLKPEDTAVYYCAARRGAIATMPLDYDHWGQGTQVTVSS
B3: 3D4 VHH-Fc (Fc fusion)
chain: QVQLVESGGGLVQPGGSLRLSCAASGFTLDLNSIGWFRQAPGKEREGVSCISPSGSRMHYADSVKGRFTISRDNAKNTVYLQMNSLKPEDTAVYYCATGSPSYHYCSMYGLEYDSWGQGTQVTVPS
B4: 19C10 VHH-Fc (Fc fusion)
chain: B3 chain with G55A, R57S, M58T, S100T, S115D, P125S
B5: 20D11 VHH-Fc (Fc fusion)
chain: QVQLVESGGGLVQAGGSLRLSCAASGRTSSIYSVGWFRQAPGKERELVAGITWSGGTTYYSDSVKGRFTISRDNAKNTVNLQMNNLKPEDTAIYYCAVDRYSMTMSARDYDYWGQGTQVTVSS
B6: 14F3 VHH-Fc (Fc fusion)
chain: B5 chain with S33G, G50L, R72K, N80F, R100T, D111E
B7: 7A9 VHH-Fc (Fc fusion)
chain: QVQLVESGGGLVQAGGSLRLSCSASGGTASRSAMGWFRQAPGKEREFVAGISRRNSGSTYVADSYEDSVKGRFTISRDNAKNTIYLQMNSLKPEDTAVYYCAAEPTLGWYVPRRSVEYEYWGQGTQVTVSS
B8: S3_44 VHH-Fc (Fc fusion)
chain: QVQLVESGGGLVQPGGSLRLSCARSENNFSINAMAWYRQAPGKQRELVAAITTAGTTNYADSVKGRFTISRDNAKTTIYLQMNSLKPEDTAVYYCNLWAGTRDDLNEYWGQGTQVTVSS
B9: S3_29 VHH-Fc (Fc fusion)
chain: B8 chain with A54S
B10: 19B8 VHH-Fc (Fc fusion)
chain: QVQLVESGGGLVQAGGSLRLSCAASGRTFTNYAMGWFRQAPGKEREFVAAISWSGGGTNYADSVKGRFTISRDNAKNTVYLQMNSPKPEDTAVYYCATTLGYYGSSSRLYEYWGQGTQVTVSS
B11: 16H7 VHH-Fc (Fc fusion)
chain: QVQLVESGGGLVQAGGSLRLSCAASGRAFSKDTMGWFRQAPGKEREFVAVISASGDSTYYADFVKGRFTISRDNAKNTEYLQMNSLKPEDTAVYHCAADGARAYYSINAHRYSWAYNYWGQGTQVTVSS

For one test, the target named is T2, SARS-CoV-2 spike protein on recombinant CHO K1 cells (SARS-CoV-2, UniProt P0DTC2 14-1273).
T2 construct: whole, on cells
The test is described as follows: FACS on CHO K1 cells.
B1: the EC50 stood at 0.08 nM.

For B2, the EC50 came out at 0.04 nM.

As for B3, the EC50 was determined as 0.15 nM.

Consider B4, for which the EC50 was determined as 0.17 nM.

With B5, the EC50 is 0.08 nM.

For the molecule B6, the EC50 was 0.06 nM.

With B7, the EC50 was found to be 0.08 nM.

On to B8, for which the EC50 is 0.08 nM.

With B9, the EC50 turned out to be 0.03 nM.

Take B10: the EC50 was found to be 0.04 nM.

B11: the EC50 is 0.31 nM.

The target in the next test is SARS-CoV spike protein on recombinant CHO K1 cells (SARS-CoV, UniProt P59594 14-1255). The test is described as follows: FACS on CHO K1 cells.
In the case of B1, the EC50 was found to be 0.09 nM.

As for B7, the EC50 stood at 0.05 nM.

The target of another test is T1, MERS spike protein on recombinant CHO …. The test is described as follows: FACS on CHO K1 cells.
For B1, the binding result is listed as “no binding”.

As to B2, the binding result is reported as “no binding”.

As to B3, the binding result is on record as “no binding”.

Consider B4, for which the binding result is reported as “no binding”.

Turning to B5, the binding result is reported as “no binding”.

On to B6, for which the binding result was “no binding”.

Turning to B7, the binding result is on record as “no binding”.

In the case of B8, the EC50 stood at 0.11 nM.

For B9, the EC50 is 0.05 nM.

For the molecule B10, the binding result is recorded as “no binding”.

Turning to B11, the binding result was “no binding”.

The target in a further test is SARS-CoV spike on rVSV-deltaG-Luc pseudovirus (SARS-CoV, UniProt P59594 14-1236). The test can be described thus: cell-based or functional assay.
As to B1, the “pseudovirus neutralization IC50” value was determined as 207 nM.

For the molecule B3, the “pseudovirus neutralization IC50” value was 0.4 nM.

In the case of B4, the “pseudovirus neutralization IC50” value was 0.45 nM.

Consider B10, for which the “pseudovirus neutralization IC50” value turned out to be 42 nM.

Usually EC50 stands for the midpoint of the concentration-response curve.
